We go through two molecules from patent US20110165605A1.

Data set [1] deals with T1, α-lactalbumin (Sigma Co.).
T1 sequence (P00711 20-142, species assumed, looked up): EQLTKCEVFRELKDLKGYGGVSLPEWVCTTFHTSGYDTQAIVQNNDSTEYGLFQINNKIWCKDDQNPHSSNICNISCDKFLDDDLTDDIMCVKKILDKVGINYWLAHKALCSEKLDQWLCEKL

For data set [2], the target named is separated soybean protein (Fuji Pro F, FUJI OIL CO., LTD.).
The target of data set [3] is casein (Wako Pure Chemical Industries, Ltd.).
Data set [4] concerns the target β-lactoglobulin (Sigma Co.).
The target of data set [5] is wheat gluten (Viten, ROQUETTE Co.).
The target in data set [6] is separated soybean protein (Fuji Pro F, FUJI OIL CO., LTD.). Kind of data set: cell-based or functional assay.
In data set [7] the target is casein (Wako Pure Chemical Industries, Ltd.). Kind of data set: cell-based or functional assay.
The target of data set [8] is wheat gluten (Viten, ROQUETTE Co.). Kind of data set: cell-based or functional assay.

B1: mature form of wild-type protein-glutaminase derived from the Chryseobacterium proteolyticum 9670 strain (protein)
chain: LASVIPDVATLNSLFNQIKNQSCGTSTASSPCITFRYPVDGCYARAHKMRQILMNNGYDCEKQFVYGNLKASTGTCCVAWSYHVAILVSYKNASGVTEKRIIDPSLFSSGPVTDTAWRNACVNTSCGSASVSSYANTAGNVYYRSPSNSYLYDNNLINTNCVLTKFSLLSGCSPSPAPDVSSCGF
Consider B1, for which the Relative activity (%) in data set [1] came to 100%; in data set [2], 127%; in data set [3] it was 1020%; in data set [4], 61%; in data set [5], 2620%.

B2: mature form of the protein-glutaminase mutant Tyr82Ser (protein)
chain: LASVIPDVATLNSLFNQIKNQSCGTSTASSPCITFRYPVDGCYARAHKMRQILMNNGYDCEKQFVYGNLKASTGTCCVAWSSHVAILVSYKNASGVTEKRIIDPSLFSSGPVTDTAWRNACVNTSCGSASVSSYANTAGNVYYRSPSNSYLYDNNLINTNCVLTKFSLLSGCSPSPAPDVSSCGF
For B2, the Ratio (Y82S/Wild-type) in data set [1] was determined as 1; in data set [4] it was 5; in data set [6] it was 4.2; in data set [7], 0.7; in data set [8] it was 1.6. The Relative activity (%) in data set [1] was determined as 100%; in data set [2] it was 531%; in data set [3], 701%; in data set [4] it was 309%; in data set [5], 4270%.
